The data set is described as follows: in vivo. The note with it: BALB/c nude, mouse, in vivo, iv, total radioactivity. The method, then:
To a 0.5 M NaOAc buffer (20-50 μL, pH=4.5) was added 4 μL of exemplary or comparator compound in DMSO stock solution (2000 μM) and 2 mCi ^177Lu (ITM Isotope Technologies Munich), the resulting mixture was heated to 95° C. for 15 min. The resulting product was analyzed by radio-TLC and radio-HPLC (column: Shim-pack GIST 5 μm 4.6*150 mm; buffer A: 0.2% formic acid H2O; buffer B: 0.1% formic acid acetonitrile; flow rate: 1 mL/min; gradient: 0-5 min: 10% B to 95% B; then 5-8 min: 95% B). The labelled products were used immediately or diluted by a PBS buffer containing freshly added 3 mg/mL ascorbate.
All animal care and experimental procedure were performed by following the animal protocols approved by the ethics committee of China Institute of Radiation Protection. The BALB/c nude mice (Charles River, Beijing) were utilized for these studies. Mice were below 5 per cage in sterile, microisolator cages under temperature- and humidity-controlled conditions with a 12 h light/12 h dark schedule and fed irradiated rodent chow and reverse osmosis (RO) sterile water ad libitum. In preparation for tumor cell inoculations, mice were anesthetized with isoflurane (RWD Life Science Inc.) at an induction rate of 4% and maintained at a rate of 2.5% with 0.4 L oxygen delivered via precision vaporizer and a non-rebreathing apparatus. These mice received subcutaneous rear flank injections of approximately 4×10^6 AR42J cells ([…] pancreatic cancer cell line) suspended in 200 μL of phosphate-buffered saline (PBS) and Matrigel (Corning) (1/1). Xenografted tumors were allowed to grow for ~2-4 weeks post-inoculation and ranged in mass from 0.05 to 0.50 g (average tumor size, 0.20 g). […] The mice were euthanized, and the tissues and organs were excised from the animals at 4, 24 and 72 h post-injection. The tissues and organs were weighed, counted in a PerkinElmer 2480 WIZARD2 γ counter, and the percent injected dose (% ID) and % ID/g of each organ or tissue were calculated.

*1 amine or outer side, *2 acyl side, *3 side chain or, on linkers, in order; H or OH if unused. Where a SMILES comes first, the peptide text is derived from it. Bridges are numbered along the chain shown (N, C = ends). Side-chain parts run from the residue outwards. [ ]: non-standard residue; d: D form. The star is where a group is joined. X1 = CC(C)(C)C(=O)CN1C(=O)[C@H](N*)CN(C2CCCCC2)c2ccccc21; DOTA = O=C(O)CN1CCN(CC(=O)O)CCN(CC(=O)*)CCN(CC(=O)O)CC1; 3Abz = Nc1cccc(C(=O)O)c1; CO = O=C([*:1])[*:2]

The tissue uptake is the share of the injected amount in each gram of the tissue. As to `C[C@@H](O)[C@H](NC(=O)[C@@H]1CSSC[C@H](NC(=O)[C@@H](Cc2ccccc2)NC(=O)CCOCCOCCOCCOCCOCCOCCNC(=O)[C@H](CCCCNC(=O)c2cccc(NC(=O)N[C@@H]3CN(C4CCCCC4)c4ccccc4N(CC(=O)C(C)(C)C)C3=O)c2)NC(=O)CN2CCN(CC(=O)O)CCN(CC(=O)O)CCN(CC(=O)O)CC2)C(=O)N[C@@H](Cc2ccc(O)cc2)C(=O)N[C@H](Cc2c[nH]c3ccccc23)C(=O)N[C@@H](CCCCN)C(=O)N[C@@H]([C@@H](C)O)C(=O)N1)C(=O)O` [Compound I-40, DOTA-K(Z360)-PEG6-f[CYwKTC]T-OH], the tissue to tissue ratio at 24 h was 2 (T/K Tumor/Kidney ratio); 5.7 (T/L Tumor/Liver ratio); 59 (T/P Tumor/Pancreas ratio); 53 (T/Sp Tumor/Spleen ratio); 10 (T/St Tumor/Stomach ratio). Moreover, the tissue uptake at 24 h reads like this: (uptake Kidney) 8.9 %ID/g; (uptake Liver) 3.1 %ID/g; (uptake Pancreas) 0.3 %ID/g; (uptake Spleen) 0.3 %ID/g; (uptake Stomach) 1.8 %ID/g; (uptake Tumor) 17.9 %ID/g.

In the case of `C[C@@H](O)[C@H](NC(=O)[C@@H]1CSSC[C@H](NC(=O)[C@@H](Cc2ccccc2)NC(=O)CCOCCOCCOCCNC(=O)[C@H](CCCCNC(=O)c2cccc(NC(=O)N[C@@H]3CN(C4CCCCC4)c4ccccc4N(CC(=O)C(C)(C)C)C3=O)c2)NC(=O)CN2CCN(CC(=O)O)CCN(CC(=O)O)CCN(CC(=O)O)CC2)C(=O)N[C@@H](Cc2ccc(O)cc2)C(=O)N[C@H](Cc2c[nH]c3ccccc23)C(=O)N[C@@H](CCCCN)C(=O)N[C@@H]([C@@H](C)O)C(=O)N1)C(=O)O` [Compound I-38, DOTA-K(Z360)-PEG3-f[CYwKTC]T-OH], the tissue to tissue ratio at 24 h (T/K Tumor/Kidney ratio) worked out at 1.8; the tissue to tissue ratio at 24 h (T/L Tumor/Liver ratio) amounted to 6.1; the tissue to tissue ratio at 24 h (T/P Tumor/Pancreas ratio) worked out at 18; the tissue to tissue ratio at 24 h (T/Sp Tumor/Spleen ratio) turned out to be 72; the tissue to tissue ratio at 24 h (T/St Tumor/Stomach ratio) was determined as 4.2. For the same compound, the tissue uptake at 24 h runs as follows: (uptake Kidney) 7.9 %ID/g; (uptake Liver) 2.3 %ID/g; (uptake Pancreas) 0.8 %ID/g; (uptake Spleen) 0.2 %ID/g; (uptake Stomach) 3.4 %ID/g; (uptake Tumor) 14.3 %ID/g.

Take `C[C@@H](O)[C@H](NC(=O)[C@@H]1CSSC[C@H](NC(=O)[C@@H](Cc2ccccc2)NC(=O)CNC(=O)[C@H]2CCCN2C(=O)CNC(=O)[C@H]2CCCN2C(=O)CNC(=O)[C@H](CCCCNC(=O)c2cccc(NC(=O)N[C@@H]3CN(C4CCCCC4)c4ccccc4N(CC(=O)C(C)(C)C)C3=O)c2)NC(=O)CN2CCN(CC(=O)O)CCN(CC(=O)O)CCN(CC(=O)O)CC2)C(=O)N[C@@H](Cc2ccc(O)cc2)C(=O)N[C@H](Cc2c[nH]c3ccccc23)C(=O)N[C@@H](CCCCN)C(=O)N[C@@H]([C@@H](C)O)C(=O)N1)C(=O)O` [Compound I-55, DOTA-K(Z360)-G-p-G-p-G-f[CYwKTC]T-OH] ({DOTA}-K([3Abz-CO-X1])G[dP]G[dP]G[dF]CY[dW]KTCT-OH; disulfide 8-13): the tissue to tissue ratio at 24 h by setting is: (T/K Tumor/Kidney ratio) 1.1; (T/L Tumor/Liver ratio) 2.5; (T/P Tumor/Pancreas ratio) 14; (T/Sp Tumor/Spleen ratio) 34; (T/St Tumor/Stomach ratio) 7.3. For the same compound, the tissue uptake at 24 h by setting is: (uptake Kidney) 20.8 %ID/g; (uptake Liver) 9.21 %ID/g; (uptake Pancreas) 1.66 %ID/g; (uptake Spleen) 0.67 %ID/g; (uptake Stomach) 3.13 %ID/g; (uptake Tumor) 23 %ID/g.

For `C[C@@H](O)[C@H](NC(=O)[C@@H]1CSSC[C@H](NC(=O)[C@@H](Cc2ccccc2)NC(=O)COCCOCCNC(=O)[C@H](CCCCNC(=O)c2cccc(NC(=O)N[C@@H]3CN(C4CCCCC4)c4ccccc4N(CC(=O)C(C)(C)C)C3=O)c2)NC(=O)CN2CCN(CC(=O)O)CCN(CC(=O)O)CCN(CC(=O)O)CC2)C(=O)N[C@@H](Cc2ccc(O)cc2)C(=O)N[C@H](Cc2c[nH]c3ccccc23)C(=O)N[C@@H](CCCCN)C(=O)N[C@@H]([C@@H](C)O)C(=O)N1)C(=O)O` [Compound 177Lu-I-37, metal not drawn], the tissue uptake at 4 h came out at 2.01 %ID/g (% ID/g Adrenal gland); 0.94 %ID/g (% ID/g Blood); 3.28 %ID/g (% ID/g Fat); 0.83 %ID/g (% ID/g Femur); 1.12 %ID/g (% ID/g Heart); 2.17 %ID/g (% ID/g Intestine). Moreover, the tissue uptake at 4 h was determined as 22.5 %ID/g (% ID/g Kidney); 11 %ID/g (% ID/g Liver); 4.42 %ID/g (% ID/g Lung); 0.38 %ID/g (% ID/g Muscle); 4.5 %ID/g (% ID/g Pancreas); 0.8 %ID/g (% ID/g Spleen). The tissue uptake at 4 h is, setting by setting: (% ID/g Stomach) 6.95 %ID/g; (% ID/g Tumor) 48.7 %ID/g. Moreover, the tissue uptake at 24 h turned out to be 1.43 %ID/g (% ID/g Adrenal gland); 0.18 %ID/g (% ID/g Blood); 0.4 %ID/g (% ID/g Fat); 0.26 %ID/g (% ID/g Femur); 0.4 %ID/g (% ID/g Heart); 0.67 %ID/g (% ID/g Intestine). Moreover, the tissue uptake at 24 h reads like this: (% ID/g Kidney) 7.79 %ID/g; (% ID/g Liver) 2.4 %ID/g; (% ID/g Lung) 1.38 %ID/g; (% ID/g Muscle) 0.1 %ID/g; (% ID/g Pancreas) 0.68 %ID/g; (% ID/g Spleen) 0.2 %ID/g. Moreover, the tissue uptake at 24 h reads like this: (% ID/g Stomach) 2.58 %ID/g; (% ID/g Tumor) 23.1 %ID/g. The tissue uptake at 72 h is 0.22 %ID/g (% ID/g Adrenal gland); 0.05 %ID/g (% ID/g Blood); 0.32 %ID/g (% ID/g Fat); 0.18 %ID/g (% ID/g Femur); 0.15 %ID/g (% ID/g Heart); 0.5 %ID/g (% ID/g Intestine). Besides, the tissue uptake at 72 h stood at 3.16 %ID/g (% ID/g Kidney); 2.03 %ID/g (% ID/g Liver); 1.41 %ID/g (% ID/g Lung); 0.03 %ID/g (% ID/g Muscle); 0.19 %ID/g (% ID/g Pancreas); 0.13 %ID/g (% ID/g Spleen). Moreover, the tissue uptake at 72 h is, setting by setting: (% ID/g Stomach) 2.13 %ID/g; (% ID/g Tumor) 21.4 %ID/g.

Take `C[C@@H](O)[C@H](NC(=O)[C@@H]1CSSC[C@H](NC(=O)[C@@H](Cc2ccccc2)NC(=O)COCCOCCNC(=O)[C@H](CCCCNC(=O)c2cccc(NC(=O)N[C@@H]3CN(C4CCCCC4)c4ccccc4N(CC(=O)C(C)(C)C)C3=O)c2)NC(=O)COCCOCCNC(=O)CN2CCN(CC(=O)O)CCN(CC(=O)O)CCN(CC(=O)O)CC2)C(=O)N[C@@H](Cc2ccc(O)cc2)C(=O)N[C@H](Cc2c[nH]c3ccccc23)C(=O)N[C@@H](CCCCN)C(=O)N[C@@H]([C@@H](C)O)C(=O)N1)C(=O)O` [Compound I-52, DOTA-OEG-K(Z360)-OEG-f[CYwKTC]T-OH]: the tissue to tissue ratio at 24 h came to 0.9 (T/K Tumor/Kidney ratio); 2.2 (T/L Tumor/Liver ratio); 14 (T/P Tumor/Pancreas ratio); 36 (T/Sp Tumor/Spleen ratio); 2.4 (T/St Tumor/Stomach ratio). Moreover, the tissue uptake at 24 h was found to be 14 %ID/g (uptake Kidney); 5.7 %ID/g (uptake Liver); 0.9 %ID/g (uptake Pancreas); 0.3 %ID/g (uptake Spleen); 5.1 %ID/g (uptake Stomach); 12.4 %ID/g (uptake Tumor).

These data come from US20260248972A1, “DUAL RECEPTOR TARGETING RADIOLIGANDS AND USES THEREOF RELATED APPLICATIONS” (priority 2022, published 2026).
